B1: human AQP9-TEV-GFP-His10 fusion (natural protein, UniProt O43315 1-295, looked up)
chain: MQPEGAEKGKSFKQRLVLKSSLAKETLSEFLGTFILIVLGCGCVAQAILSRGRFGGVITINVGFSMAVAMAIYVAGGVSGGHINPAVSLAMCLFGRMKWFKLPFYVGAQFLGAFVGAATVFGIYYDGLMSFAGGKLLIVGENATAHIFATYPAPYLSLANAFADQVVATMILLIIVFAIFDSRNLGAPRGLEPIAIGLLIIVIASSLGLNSGCAMNPARDLSPRLFTALAGWGFEVFRAGNNFWWIPVVGPLVGAVIGGLIYVLVIEIHHPEPDSVFKTEQSEDKPEKYELSVIM
notes: Aquaporin 9, human, cDNA codon optimized for S. cerevisiae; primers run from the start codon to the last codon; also called AQP9-GFP; Aquaporin 9; not shown: TEV cleavage site, C-terminal, kept; yeGFP, C-terminal, kept; His10, C-terminal, kept
B2: human AQP2-TEV-GFP-His10 fusion (natural protein, UniProt P41181 1-271, looked up)
chain: MWELRSIAFSRAVFAEFLATLLFVFFGLGSALNWPQALPSVLQIAMAFGLGIGTLVQALGHISGAHINPAVTVACLVGCHVSVLRAAFYVAAQLLGAVAGAALLHEITPADIRGDLAVNALSNSTTAGQAVTVELFLTLQLVLCIFASTDERRGENPGTPALSIGFSVALGHLLGIHYTGCSMNPARSLAPAVVTGKFDDHWVFWIGPLVGAILGSLLYNYVLFPPAKSLSERLAVLKGLEPDTDWEEREVRRRQSVELHSPQSLPRGTKA
notes: Aquaporin 2, human, cDNA codon optimized for S. cerevisiae; primers run from the start codon to the last codon; also called AQP2-GFP; APQ2-GFP; not shown: TEV cleavage site, C-terminal, kept; yeGFP, C-terminal, kept; His10, C-terminal, kept
B3: human AQP6-TEV-GFP-His10 fusion (natural protein, UniProt Q13520 1-282, looked up)
chain: MDAVEPGGRGWASMLACRLWKAISRALFAEFLATGLYVFFGVGSVMRWPTALPSVLQIAITFNLVTAMAVQVTWKASGAHANPAVTLAFLVGSHISLPRAVAYVAAQLVGATVGAALLYGVMPGDIRETLGINVVRNSVSTGQAVAVELLLTLQLVLCVFASTDSRQTSGSPATMIGISVALGHLIGIHFTGCSMNPARSFGPAIIIGKFTVHWVFWVGPLMGALLASLIYNFVLFPDTKTLAQRLAILTGTVEVGTGAGAGAEPLKKESQPGSGAVEMESV
notes: Aquaporin 6, human, cDNA codon optimized for S. cerevisiae; primers run from the start codon to the last codon; also called AQP6-GFP; Aquaporin 6; not shown: TEV cleavage site, C-terminal, kept; yeGFP, C-terminal, kept; His10, C-terminal, kept

Biological target: the molecule itself
Assay: SDS-PAGE (SDS-resistant oligomers); peak fractions of Ni-affinity purified, detergent solubilised AQP-TEV-GFP-His10 fusions separated by SDS-PAGE; in-gel fluorescence and Coomassie staining

Binding result, binds:
B1
B2
B3

Source: publication PMC5715081, “Purification and functional comparison of nine human Aquaporins produced in Saccharomyces cerevisiae for the purpose of biophysical characterization” (Scientific Reports, 2017)
